Measurements: publication PMC8084935

Biological target: FITC-labeled McrA peptide (GG-…) (Methanothermobacter sp. CaT2)
Assay: fluorescence polarisation

Kd: 7 µM
Substance: MtYcaO (YcaO from Methanothermobacter sp. CaT2), MBP-His tag cut in the assay mixture (enzyme)
